Non-standard residues stand in square brackets, D forms with d. No end group written: not given here.
Assays:
Experiment in all cases: cell-based or functional assay
NPY Y2 receptor (mouse) = NPY Y2 receptor (mouse) (UniProt P97295)
[1] = target: µ-opioid receptor (mouse) (UniProt P42866)
MC3-R (mouse) = MC3-R (mouse) (UniProt P33033)
Sequence of MC3-R (mouse) (P33033 whole entry): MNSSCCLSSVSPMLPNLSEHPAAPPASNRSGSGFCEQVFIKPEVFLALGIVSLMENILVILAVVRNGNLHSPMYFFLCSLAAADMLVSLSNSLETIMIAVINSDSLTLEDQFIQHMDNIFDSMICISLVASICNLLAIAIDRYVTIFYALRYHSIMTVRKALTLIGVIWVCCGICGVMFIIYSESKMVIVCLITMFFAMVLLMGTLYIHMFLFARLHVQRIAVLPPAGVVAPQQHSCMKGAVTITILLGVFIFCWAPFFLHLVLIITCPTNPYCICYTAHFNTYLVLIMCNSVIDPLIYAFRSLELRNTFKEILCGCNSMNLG

Sequence of NPY Y2 receptor (mouse) (P97295 whole entry): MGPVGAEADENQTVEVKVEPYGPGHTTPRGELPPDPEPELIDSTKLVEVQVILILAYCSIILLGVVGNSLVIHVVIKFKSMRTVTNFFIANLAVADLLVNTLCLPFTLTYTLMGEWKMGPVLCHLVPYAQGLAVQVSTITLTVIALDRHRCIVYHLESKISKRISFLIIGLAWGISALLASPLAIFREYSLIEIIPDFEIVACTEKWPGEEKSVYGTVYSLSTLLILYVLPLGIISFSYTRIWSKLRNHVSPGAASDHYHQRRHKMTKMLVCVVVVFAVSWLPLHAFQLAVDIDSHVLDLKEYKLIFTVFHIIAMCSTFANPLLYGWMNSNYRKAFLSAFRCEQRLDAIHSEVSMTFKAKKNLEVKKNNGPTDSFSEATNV
Sequence of µ-opioid receptor (mouse) (P42866 whole entry): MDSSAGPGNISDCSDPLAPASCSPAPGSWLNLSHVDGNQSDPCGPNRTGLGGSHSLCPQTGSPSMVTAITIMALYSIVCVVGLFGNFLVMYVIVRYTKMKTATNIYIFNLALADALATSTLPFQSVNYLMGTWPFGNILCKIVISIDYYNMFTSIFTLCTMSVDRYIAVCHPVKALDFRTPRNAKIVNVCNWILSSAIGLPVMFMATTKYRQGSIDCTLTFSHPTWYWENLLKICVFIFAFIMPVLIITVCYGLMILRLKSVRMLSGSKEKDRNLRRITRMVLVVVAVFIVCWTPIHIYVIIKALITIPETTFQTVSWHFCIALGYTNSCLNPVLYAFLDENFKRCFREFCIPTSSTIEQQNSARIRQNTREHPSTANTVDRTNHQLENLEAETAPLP

N-acetyl (Leu^28, Leu^31) NPY (24-36) (from UniProt P01303 52-64) (peptide)
reduction of the frequency of inhibitory postsynaptic currents (IPSCs) onto POMC neurons (NPY Y2 receptor (mouse)): 44.4%

neuropeptide Y (from UniProt P01303 29-64)
decrease of the frequency of GABAergic IPSCs in POMC cells (100 nM NPY) (NPY Y2 receptor (mouse)): 55%

YGGFM (peptide, UniProt P01210 100-104, looked up) [met-enkephalin]
hyperpolarization of the membrane potential of POMC cells (whole cell recording, 30 µM Met-Enk) [1]: 10 to 20 mV

YVMGHFR[dW]DRFG (peptide, UniProt P01189 77-88, looked up, ends and bridges not checked) [D-Trp^8-γMSH]
frequency of GABAergic IPSCs recorded from POMC neurons (7 nM) (MC3-R (mouse)): 280% | hyperpolarization of POMC neurons (7 nM) (MC3-R (mouse)): -5.5 mV

— US7125979
